The source of these data is US20250341526A1, “NOVEL DYES” (Quantum-Si Incorporated, priority 2024, published 2025).

Data set [1] is described as follows: Persistence of triplet state quenchers in solution. The data set is classed as physicochemical. The text has this: FIGS. 11A-11B show the persistence of cyclooctatetraene (FIG. 11A) and COT-PEG3-sulfonate (triethylammonium salt) (FIG. 11B) in solution.
Cyclooctatetraene (COT)-based triplet state quenchers (TSQs) were used in place of or in addition to the currently used Trolox TSQ. TSQs can enhance photophysical properties of dyes in single-molecule studies, and the optimal TSQ can depend on the class of dye used. Trolox and COT quench triplet states by different mechanisms.
Water-soluble COT conjugates were made to improve solution stability of these TSQs (FIG. 11). The derivatives were made via various amide coupling reactions between COT-CO2H and the appropriate amine. COT-CO2H can be purchased or made in two steps from the parent COT compound.

Data set [2] relates to amino acid at a terminal position of a polypeptide. The settings on record: Table 2; amino acid at terminal position (phosphotyrosine also internal); inferred from literature and/or demonstrated by the inventors; cited from earlier work.

Take `C1=CC=CC=CC=C1` [unsubstituted COT, cyclooctatetraene]: in data set [1] (also in the presence of mineral oil), the “stability (persistence) in solution” value is recorded as “its concentration drops over time”. Moreover, the water solubility result in data set [1] (sequencing buffer) was “not fully water-soluble”.

B1: PS629: amino acid recognition protein, SEQ ID NO: 189 (protein, listed as Pichia pastoris)
chain: MCPNYKHHGRPCARQFKQGEPIYRCYECGFDETCVMCMHCFNREQHRDHEVSISIASSSNDGICDCGDPQAWNIELHCQSELD
Take B1: the “Binding Pref.” value in data set [2] is “K, R, H”.

B2: PS627: amino acid recognition protein, SEQ ID NO: 187 (protein, listed as Zygosaccharomyces mellis)
chain: MPKYHQHSGRYCGRKFKVGEPIYRCHECGFDETCVICIHCFNAKDHETHHVSVSICSEYSTGICDCGDTEAFVNPLHCRAEEV
B2: the “Binding Pref.” value in data set [2] is on record as “K, R, H”.

B3: PS624: amino acid recognition protein, SEQ ID NO: 184 (protein, listed as Eremothecium sinecaudum)
chain: MPKNHNHKGRNCGRSFQPGEPLYRCQECAYDDTCVLCIRCFNPLDHVNHHVSTHICSEFNDGICDCGDVEAWNVELNCKAEED
For the molecule B3, the “Binding Pref.” value in data set [2] is reported as “K, R, H”.

B4: PS620: amino acid recognition protein, SEQ ID NO: 180 (protein, listed as Saccharomyces cerevisiae)
chain: MGNMHIGTACTRLCFPSETIYYCFTCSTNPLYEICELCFDKEKHVNHSYVAKVVMRPEGRICHCGDPFAFNDPSDAFKCKN
In the case of B4, the “Binding Pref.” value in data set [2] is “K, R, H”.

B5: Escherichia coli leucyl/phenylalanyl-tRNA-protein transferase: amino acid recognition protein, SEQ ID NO: 111 (protein, listed as Escherichia coli)
chain: MRLVQLSRHSIAFPSPEGALREPNGLLALGGDLSPARLLMAYQRGIFPWFSPGDPILWWSPDPRAVLWPESLHISRSMKRFHKRSPYRVTMNYAFGQVIEGCASDREEGTWITRGVVEAYHRLHELGHAHSIEVWREDELVGGMYGVAQGTLFCGESMFSRMENASKTALLVFCEEFIGHGGKLIDCQVLNDHTASLGACEIPRRDYLNYLNQMRLGRLPNNFWVPRCLFSPQELE
Take B5: the “Binding Pref.” value in data set [2] was “K, R”.

B6: PS628: amino acid recognition protein, SEQ ID NO: 188 (protein)
chain: MSHRAYHKNSPCGRIFRKGEPIHRCLTCGFDDTCALCSHCFQPEYHEGHKVHIGICQRENGGVCDCGDPEAWTQELFCPYAVD
modifications: Candida albicans
For the molecule B6, the “Binding Pref.” value in data set [2] is listed as “K, R, H”.

B7: PS625: amino acid recognition protein, SEQ ID NO: 185 (protein, listed as Saccharomyces eubayanus)
chain: MGDVHKHTGRNCGRKFKIGEPLYRCHECGCDDTCVLCIHCFNPKDHINHHVCTDICSEFTSGICDCGDEEAWNSSLHCKAEEQ
Consider B7, for which the “Binding Pref.” value in data set [2] was “K, R, H”.

B8: PS618: amino acid recognition protein, SEQ ID NO: 178 (protein, listed as Zygosaccharomyces bailii)
chain: MNASHKGAMCSKQCYPTETVFYCFTCTTNPLYEICESCFDEEKHRGHLYTAKVVVRPEGRVCHCGDPFVFKEPRFAFLCKN
In the case of B8, the “Binding Pref.” value in data set [2] is “K, R, H”.

B9: PS626: amino acid recognition protein, SEQ ID NO: 186 (protein, listed as Zygosaccharomyces parabailii)
chain: MYHVYKHSGRNCGRKFKVGEPIYRCHECGYDETCVLCIHCFNPKDHDSHHVYIDICSEFSTGICDCGDTEAFVNPLHCKAEED
Turning to B9, the “Binding Pref.” value in data set [2] is listed as “K, R, H”.

B10: PS621: amino acid recognition protein, SEQ ID NO: 181 (protein, listed as Kluyveromyces marxianus)
chain: MHSKFSHAGRICGAKFKVGEPIYRCKECSFDDTCVLCVNCFNPKDHTGHHVYTTICTEFNNGICDCGDKEAWNHTLFCKAEEG
For B10, in data set [2], the “Binding Pref.” value is reported as “K, R, H”.

B11: PS619: amino acid recognition protein, SEQ ID NO: 179 (protein, listed as Vanderwaltozyma polyspora)
chain: MENLHIGSCCNRQCYPTQTVYYCLTCTINPLYEICELCFDEDKHVGHTYISKSVIRPEGKVCHCGNPNVFKKPEFAFNCKN
On to B11, for which the “Binding Pref.” value in data set [2] is reported as “K, R, H”.

B12: PS622: amino acid recognition protein, SEQ ID NO: 182 (protein, listed as Kluyveromyces dobzhanskii)
chain: MHSRFNHAGRICASKFKVGEPIYRCKECSFDDTCVICVNCFNPKDHVGHHVYTSICSEFNNGICDCGDTEAWNHDMHCKADEN
Regarding B12, in data set [2], the “Binding Pref.” value is recorded as “K, R, H”.

B13: PS623: amino acid recognition protein, SEQ ID NO: 183 (protein, listed as Kazachstania naganishii)
chain: MSKQFRHKGRNCGRKFRLGEPLYRCQECGYDDTCVLCINCFNPKDHEGHHIYTDICNDFTSGICDCGDEEAWLSPLHCKAEED
Turning to B13, in data set [2], the “Binding Pref.” value is given as “K, R, H”.
